# Experimental data published in US20230040928A1 (INSERM INSTITUT NATIONAL DE LA SANTE ET DE LA RECHERCHE …, published 2023).
# Numbering of substitutions follows the chain as printed.
# T1: human HER4-Fc (human, UniProt Q15303 26-651)
# T1 construct: Bought protein; also called HER4-Fc antigen; not shown: Fc part of the bought fusion protein, not described
# T1 sequence: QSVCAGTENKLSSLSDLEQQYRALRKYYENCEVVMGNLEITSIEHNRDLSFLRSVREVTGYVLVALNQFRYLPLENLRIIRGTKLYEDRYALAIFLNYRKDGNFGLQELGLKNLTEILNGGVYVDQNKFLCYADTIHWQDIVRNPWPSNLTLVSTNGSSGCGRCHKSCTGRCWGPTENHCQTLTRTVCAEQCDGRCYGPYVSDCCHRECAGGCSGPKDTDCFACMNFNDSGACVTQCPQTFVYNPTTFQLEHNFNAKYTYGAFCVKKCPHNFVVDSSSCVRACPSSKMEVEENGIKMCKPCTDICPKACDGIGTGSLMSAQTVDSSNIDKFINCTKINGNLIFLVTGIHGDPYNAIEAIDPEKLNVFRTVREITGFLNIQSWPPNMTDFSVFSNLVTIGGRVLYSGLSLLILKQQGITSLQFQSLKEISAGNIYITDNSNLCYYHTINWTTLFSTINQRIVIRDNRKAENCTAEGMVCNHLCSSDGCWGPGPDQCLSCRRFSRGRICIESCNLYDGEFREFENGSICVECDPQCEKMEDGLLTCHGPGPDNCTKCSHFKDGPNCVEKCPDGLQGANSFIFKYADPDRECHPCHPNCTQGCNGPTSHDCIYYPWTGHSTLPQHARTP
# B1: C6 mAb (antibody, V domains shown)
# VH: EVQLVESGGSLVKPGGSLRLSCAASGFTFSNYYMNWVRQAPGKGLEWISSISGSSRYIDYADFVKGRFTISRDNATNSLYLQMNSLRAEDTAVYYCVRSSSDYFGGGMDVWGRGTLVTVSS
# VL: QSVLTQPASVSGSPGQSITISCAGTSSDVGGSYYVSWYQQHPGKAPKLMIYYDSYRPSGVSNRFSGSKSGNTASLTISGLQAEDEADYYCSSSTYNSTRVFGGGTKLAVLG
# notes: also called antibody C6; Ab C6
# B2: H2 mAb (antibody, V domains shown)
# VH: B1 VH with Y32N, Y33D, S50D, S52N, D59Y, S101D
# VL: B1 VL with S32Y, Y34S, Y52N, N96Y
# notes: also called antibody H2
# B3: D5 mAb (antibody, V domains shown)
# VH: B1 VH with S52D
# VL: B1 VL with Y33S, S93N, N96Y
# notes: also called antibody D5; anti-HER4 antibody D5
# B4: F4 mAb (antibody, V domains shown)
# VH: B1 VH with Y32N, Y33D, D59N, S101D
# VL: B1 VL with S32Y, Y33S, Y34G, Y52N, S93Y, Y95N
# notes: also called antibody F4
# Biological target: T2, EGFR receptor (UniProt P00533 25-645, limits assumed)
# T2 construct: also called Her1; ErbB1
# Assay: ELISA
row,binding result,Binder
1,no binding,B1
2,no binding,B2
3,no binding,B3
4,no binding,B4

# Biological target: T3, HER2 receptor (UniProt P04626 23-652, limits assumed)
# T3 construct: also called Neu; ErbB2
# Assay: ELISA
row,binding result,Binder
1,no binding,B1
2,no binding,B2
3,no binding,B3
4,no binding,B4

# Biological target: T4, HER3 receptor (UniProt P21860 20-643, limits assumed)
# T4 construct: also called ErbB3
# Assay: ELISA
# T4 sequence (P21860 20-643 limits assumed): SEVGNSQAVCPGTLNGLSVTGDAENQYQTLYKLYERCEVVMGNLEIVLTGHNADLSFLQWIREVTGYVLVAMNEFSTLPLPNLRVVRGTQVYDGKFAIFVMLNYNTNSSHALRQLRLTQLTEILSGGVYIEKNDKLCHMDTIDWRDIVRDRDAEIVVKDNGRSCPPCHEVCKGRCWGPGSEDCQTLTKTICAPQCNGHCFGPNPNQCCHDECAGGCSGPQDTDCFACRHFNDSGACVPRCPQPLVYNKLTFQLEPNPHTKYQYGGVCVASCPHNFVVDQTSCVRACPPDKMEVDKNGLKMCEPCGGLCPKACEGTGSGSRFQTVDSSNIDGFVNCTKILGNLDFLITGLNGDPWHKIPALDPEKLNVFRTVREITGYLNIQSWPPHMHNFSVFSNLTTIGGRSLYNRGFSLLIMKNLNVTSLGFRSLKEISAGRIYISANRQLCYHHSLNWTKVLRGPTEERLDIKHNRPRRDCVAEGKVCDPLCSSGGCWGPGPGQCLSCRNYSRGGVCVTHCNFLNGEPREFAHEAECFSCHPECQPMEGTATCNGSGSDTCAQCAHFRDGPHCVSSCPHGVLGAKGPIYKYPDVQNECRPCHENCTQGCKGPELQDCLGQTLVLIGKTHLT
row,binding result,Binder
1,no binding,B1
2,no binding,B2
3,no binding,B3
4,no binding,B4

# Biological target: T1, human HER4-Fc
# Assay: ELISA, HER4-Fc coated at 250 ng/ml, IgG in solution
# Experimental: (§1) Ninety six-well enzyme immunoassay plates (Nunc Maxisorp) were coated overnight at 4° C. with HER4-Fc antigen at a concentration of 250 ng/ml in PBS pH 7.4. After four washes in PBS, containing 0.1% Tween 20 (PBS-T), plates were saturated with a 2% solution of bovine serum albumin (BSA) in PBS-T buffer for 2 h at 37° C. Two-fold or ten-fold serial dilutions of purified HER4-specific mAbs were added after four washes in PBS-T and plates were incubated at 37° C. for 2 h. Following four washes in PBS-T, 100 μl of a peroxidase-conjugated goat anti-human F(ab′)2 antibody (Jackson Immunoresearch) were added to each well. The conjugate was used at a 1:5000 dilution in PBS-T-2% BSA. The plates were incubated at 37° C. for 1 h and then washed three times in PBS-T and once in PBS. Finally a Tetramethylbenzidine solution (Sigma) was added for 30 min at ambient temperature in the dark. The reaction was stopped by adding 50 μl/well 1M […] and the absorbance was measured at 450 nm. […] HER4-specific antibodies D5 and C6, giving 50%-absorbance at concentration of 20 ng/ml and 100 ng/ml respectively, on human HER4-Fc, are more efficient for binding than F4 and H2, which gave a 50%-absorbance at concentration around 1-5 μg/ml (FIG. 1).
row,binding result,Binder
1,binds,B2
2,binds,B4

# Biological target: T1, human HER4-Fc
# Assay: ELISA, human HER4-Fc coated, concentration giving 50% absorbance
# Experimental: as §1
row,EC50 [µg/mL],Binder
1,0.1,B1
2,0.02,B3
